Source: patent publication US20240287172A1 (SCIRHOM, published 2024)

T1: hiR1-FL-WT-T7 (human, UniProt Q96CC6 1-855)
T1 construct: on MEF-DKO cells
T1 sequence: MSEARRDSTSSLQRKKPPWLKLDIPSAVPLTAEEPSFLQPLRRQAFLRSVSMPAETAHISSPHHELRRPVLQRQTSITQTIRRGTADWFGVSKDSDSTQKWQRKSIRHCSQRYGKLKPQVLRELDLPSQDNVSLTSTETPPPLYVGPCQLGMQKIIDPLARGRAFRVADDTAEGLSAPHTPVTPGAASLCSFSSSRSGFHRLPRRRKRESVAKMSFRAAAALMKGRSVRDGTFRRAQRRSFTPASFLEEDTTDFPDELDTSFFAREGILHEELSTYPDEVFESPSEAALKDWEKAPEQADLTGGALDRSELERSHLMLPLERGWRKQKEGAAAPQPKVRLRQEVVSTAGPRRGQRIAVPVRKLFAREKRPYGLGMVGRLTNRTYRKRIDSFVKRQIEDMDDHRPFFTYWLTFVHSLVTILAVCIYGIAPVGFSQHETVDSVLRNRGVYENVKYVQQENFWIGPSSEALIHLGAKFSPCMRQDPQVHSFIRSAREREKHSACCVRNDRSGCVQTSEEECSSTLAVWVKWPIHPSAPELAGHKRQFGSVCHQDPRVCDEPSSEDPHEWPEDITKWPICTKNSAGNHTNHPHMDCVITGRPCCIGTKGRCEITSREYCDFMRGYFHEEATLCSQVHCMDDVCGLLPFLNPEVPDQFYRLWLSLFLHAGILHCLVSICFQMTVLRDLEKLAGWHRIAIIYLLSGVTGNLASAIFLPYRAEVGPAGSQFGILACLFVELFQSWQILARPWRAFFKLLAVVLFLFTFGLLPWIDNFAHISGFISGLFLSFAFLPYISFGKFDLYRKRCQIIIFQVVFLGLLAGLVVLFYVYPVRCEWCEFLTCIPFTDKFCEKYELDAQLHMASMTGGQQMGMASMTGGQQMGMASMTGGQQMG

T2: miR2-FL-WT-T7 (mouse, UniProt Q80WQ6 1-827)
T2 construct: on MEF-DKO cells
T2 sequence: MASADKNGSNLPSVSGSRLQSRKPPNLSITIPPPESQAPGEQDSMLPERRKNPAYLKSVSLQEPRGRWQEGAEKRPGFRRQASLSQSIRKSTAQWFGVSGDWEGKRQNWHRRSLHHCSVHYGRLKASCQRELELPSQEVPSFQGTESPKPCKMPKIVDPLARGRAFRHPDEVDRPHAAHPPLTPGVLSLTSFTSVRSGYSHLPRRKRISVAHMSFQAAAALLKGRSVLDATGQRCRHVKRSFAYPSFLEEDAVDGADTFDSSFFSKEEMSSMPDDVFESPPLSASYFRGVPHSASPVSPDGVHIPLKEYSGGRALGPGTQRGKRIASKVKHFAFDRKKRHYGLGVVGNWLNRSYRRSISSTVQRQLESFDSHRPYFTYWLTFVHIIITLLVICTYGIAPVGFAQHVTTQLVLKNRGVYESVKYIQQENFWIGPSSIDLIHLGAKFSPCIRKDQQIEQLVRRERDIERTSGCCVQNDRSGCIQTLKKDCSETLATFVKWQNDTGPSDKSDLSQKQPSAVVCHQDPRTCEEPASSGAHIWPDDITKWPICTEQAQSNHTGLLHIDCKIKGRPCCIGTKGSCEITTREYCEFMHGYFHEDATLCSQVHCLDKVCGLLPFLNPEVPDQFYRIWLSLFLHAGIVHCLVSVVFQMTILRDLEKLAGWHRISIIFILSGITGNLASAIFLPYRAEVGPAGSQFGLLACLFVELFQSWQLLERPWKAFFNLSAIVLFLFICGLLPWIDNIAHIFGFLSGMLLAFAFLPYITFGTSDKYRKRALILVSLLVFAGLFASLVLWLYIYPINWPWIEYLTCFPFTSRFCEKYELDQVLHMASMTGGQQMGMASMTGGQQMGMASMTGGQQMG


Columns and labels:
hiR1-FL-WT-T7 = molecular target: T1, hiR1-FL-WT-T7; experiment: FACS, MEF-DKO-hiR1-FL-WT-T7 cells
miR2-FL-WT-T7 = molecular target: T2, miR2-FL-WT-T7; experiment: FACS on MEF-DKO-miR2-FL-WT-T7 cells

Row | Binder | binding result (hiR1-FL-WT-T7) | binding result (miR2-FL-WT-T7)
1 | antibody 48 (antibody, V domains shown, mouse IgG, kappa light chain; also called clone #48; purified antibody 48) VH: QVQLQQSGTELVRPGTSVKVSCKASGYAFTNYLIEWVKQRPGQGLEWIGVINPGSGFTKYNEKFKGKATLTADKSSSTVYMHLSSLTSEDSAVYFCARGLYRAMDYWGQGTSVTVSS VL: DIQMTQSPASQSASLGESVTITCLASQTIATWLAWYQQKPGKSPQLLIYGATTLADGVPSRFSGGGSGTKFSFKISSLQAEDFVSYYCQQLYSTPYTFGGGTKLEIK | no binding (tested: 3 µg/ml) | 
2 | antibody 50 (antibody, V domains shown, mouse IgG, kappa light chain; also called clone #50; purified antibody 50) VH: QVQLQQSGAELVRPGASVKVSCKASGYAFSNYLIEWVKQRPGQGLEWIGVINPGSGFTKYNEKFKGKATLTADKSSSTAYMQLSSLTSEDSAVYFCARGLYRAMDYWGQGTSVTVSS VL: DIQMTQSPASQSASLGESVTITCLASQTIGTWLAWYQQKPGKSPQLLIYAAASLADGVPSRFSGGGSGTKFSFKISSLQAEDFVNYYCQQIYSTPYTFGGGTKLEIK |  | no binding (tested: 3 µg/ml)
